These results are taken from paper PMC10163214, “E. coli allantoinase is activated by the downstream metabolic enzyme, glycerate kinase, and stabilizes the putative allantoin transporter by direct binding” (Scientific Reports, 2023).

The target in data set [1] is T1, AllW (YbbW) (Escherichia coli, UniProt P75712).
T1 construct: native chromosomal AllW in delta-allC cells, stabilised by AllB; compared with allW and allB deletion strains; with Allantoinase
Nature of the data set: cellular allantoin uptake by GC-MS. It counts as cell-based. The settings on record: 1 mM allantoin, PBS with glucose, delta-allC cells; uptake lost in allW or allB deletion.

The target in data set [2] is T2, AllB (allantoinase; AllB_Zn, AllB_Mn) (Escherichia coli, UniProt P77671).
T2 construct: full length; expressed in E. coli; tetrameric
T2 sequence (P77671 1-453): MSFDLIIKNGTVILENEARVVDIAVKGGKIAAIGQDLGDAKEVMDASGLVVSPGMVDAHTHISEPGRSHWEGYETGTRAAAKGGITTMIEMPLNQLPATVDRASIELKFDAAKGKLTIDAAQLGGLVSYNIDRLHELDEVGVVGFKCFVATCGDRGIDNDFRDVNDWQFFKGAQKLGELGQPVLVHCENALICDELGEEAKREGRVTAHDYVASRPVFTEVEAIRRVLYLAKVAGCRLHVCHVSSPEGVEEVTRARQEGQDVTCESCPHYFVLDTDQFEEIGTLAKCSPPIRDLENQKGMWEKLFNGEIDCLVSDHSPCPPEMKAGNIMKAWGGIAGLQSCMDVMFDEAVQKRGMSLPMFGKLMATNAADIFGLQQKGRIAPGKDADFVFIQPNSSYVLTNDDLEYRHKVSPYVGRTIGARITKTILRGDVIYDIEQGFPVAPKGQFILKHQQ
Nature of the data set: absorbance of allantoate at […] nm. It counts as biochemical. The settings on record: 0.1 mM ZnSO4, no GlxK, no glyoxylate, pH 8.0.

Substrate in data set [3]: NC(=O)NC1NC(=O)NC1=O
Nature of the data set: purified protein. The data set is classed as biochemical, Escherichia coli. The conditions noted are these: AllB_Mn, 0.2 mM MnSO4, no GlxK, 0.9 mM glyoxylate present, pH 8.0, 37 °C.

Substrate in data set [4]: O=C(O)[C@H](O)CO
Nature of the data set: purified protein. It counts as biochemical, Escherichia coli. The conditions noted are these: 10 mM MgSO4, 1.2 mM ATP, pH 7.4, 37 °C.

T1 sequence (P75712 whole entry): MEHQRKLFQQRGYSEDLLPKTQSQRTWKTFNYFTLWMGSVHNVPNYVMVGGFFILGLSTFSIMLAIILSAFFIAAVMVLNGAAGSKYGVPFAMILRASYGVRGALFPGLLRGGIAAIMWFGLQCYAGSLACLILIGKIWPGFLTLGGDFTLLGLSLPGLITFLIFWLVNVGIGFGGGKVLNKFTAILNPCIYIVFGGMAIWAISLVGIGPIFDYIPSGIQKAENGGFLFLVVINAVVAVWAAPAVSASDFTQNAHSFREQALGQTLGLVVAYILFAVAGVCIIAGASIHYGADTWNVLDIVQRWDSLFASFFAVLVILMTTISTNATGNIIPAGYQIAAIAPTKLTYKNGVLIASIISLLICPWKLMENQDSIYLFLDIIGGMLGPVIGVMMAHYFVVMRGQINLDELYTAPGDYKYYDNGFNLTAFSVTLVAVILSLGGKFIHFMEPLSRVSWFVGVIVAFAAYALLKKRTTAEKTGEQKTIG

With `NC(=O)NC1NC(=O)NC1=O` (stereo not drawn) [allantoin], the “cellular allantoin uptake by GC-MS” value in data set [1] is “no allantoin uptake was detected in either the AW12 (ΔallC–ΔallB) or the AW13 (ΔallC–ΔallW) mutant”. Further, the Km (in general, the substrate concentration at which the rate is half of its maximum) in data set [2] is greater than 15 mM.

B1: AllB (allantoinase; AllB_Zn, AllB_Mn) (Escherichia coli K-12) (protein)
chain: MSFDLIIKNGTVILENEARVVDIAVKGGKIAAIGQDLGDAKEVMDASGLVVSPGMVDAHTHISEPGRSHWEGYETGTRAAAKGGITTMIEMPLNQLPATVDRASIELKFDAAKGKLTIDAAQLGGLVSYNIDRLHELDEVGVVGFKCFVATCGDRGIDNDFRDVNDWQFFKGAQKLGELGQPVLVHCENALICDELGEEAKREGRVTAHDYVASRPVFTEVEAIRRVLYLAKVAGCRLHVCHVSSPEGVEEVTRARQEGQDVTCESCPHYFVLDTDQFEEIGTLAKCSPPIRDLENQKGMWEKLFNGEIDCLVSDHSPCPPEMKAGNIMKAWGGIAGLQSCMDVMFDEAVQKRGMSLPMFGKLMATNAADIFGLQQKGRIAPGKDADFVFIQPNSSYVLTNDDLEYRHKVSPYVGRTIGARITKTILRGDVIYDIEQGFPVAPKGQFILKHQQ
notes: full length; expressed in E. coli; tetrameric
On to B1, for which, in data set [3], the Km is 5.8 ± 1.2 mM and the Vmax is 246 ± 32 U/mg protein.

B2: GlxK (glycerate 2-kinase) (Escherichia coli K-12) (protein)
chain: MKIVIAPDSFKESLSAEKCCQAIKAGFSTLFPDANYICLPIADGGEGTVDAMVAATGGNIVTLEVCGPMGEKVNAFYGLTGDGKTAVIEMAAASGLMLVAPEKRNPLLASSFGTGELIRHALDNDIRHIILGIGGSATVDGGMGMAQALGVRFLDADGQALAANGGNLARVASIEMDECDPRLANCHIEVACDVDNPLVGARGAAAVFGPQKGATPEMVEELEQGLQNYARVLQQQTEINVCQMAGGGAAGGMGIAAAVFLNADIKPGIEIVLNAVNLAQAVQGAALVITGEGRIDSQTAGGKAPLGVASVAKQFNVPVIGIAGVLGDGVEVVHQYGIDAVFSILPRLAPLAEVLASGETNLFNSARNIACAIKIGQGIKN
notes: full length, N-terminal His6 tag, expressed in E. coli; GlxK-His 41 kDa
In the case of B2, in data set [4], the Km was 0.085 ± 0.009 mM and the Vmax is recorded as 4.6 ± 0.3 U/mg protein.
